B1: HDV Ribozyme (parent)
chain: GGCCGGCAUGGUCCCAGCCUCCUCGCUGGCGCCGGCUGGGCAACAUUCCGAGGGGACCGUCCCCUCGGUAAUGGCGAAUGGGACCCA

Variants of: B1
Assay: self-cleavage, relative activity (ratio to wild type); higher = more cleavage; co-transcriptional

| Variant | self-cleavage |
| --- | --- |
| GGCCGGCAUGGUCCCAGCCUCCUCUCUGGCGCCGGCUGGGCAACAUUCCGAGGGGACCGUCCCCUCGGUAAUGGCGAAUAGGACCCA [G25U G80A] | 0.117 |
| GGCCGGCAUGGUCCCAGCCUCCUCUCUGGCGCCGGCUGGGCAAGAUUCCGAGGGGACCGUCCCCUCGGUAAUGGCGAAUGGGACCCA [G25U C44G] | 0.249 |
| GGCCGGCAUGGUCCCAGCCUCCUCUCUGGCGCCGGCUGUGCAACAUUCCGAGGGGACCGUCCCCUCGGUAAUGGCGAAUGGGACCCA [G25U G39U] | 0.0302 |
| GGCCGGCAUGGUCCCAGCCUCCUCUCUGGCGCCGGCUGAGCAACAUUCCGAGGGGACCGUCCCCUCGGUAAUGGCGAAUGGGACCCA [G25U G39A] | 0.0963 |
| GGCCGGCAUGGUCCCAGCCUCCUCUCUGGCGCCGGCUGCGCAACAUUCCGAGGGGACCGUCCCCUCGGUAAUGGCGAAUGGGACCCA [G25U G39C] | 0.0773 |
| GGCCGGCAUGGUCCCAGCCUCCUCUCUGGCGCCGGCUGGGCAACAUUCCGAGGGGACCGUCGCCUCGGUAAUGGCGAAUGGGACCCA [G25U C62G] | 0.253 |
| GGCCGGCAUGGUCCCAGCCUCCUCUCUGGCGCCGGCUGGGCAACAUUCCGAGGGGACCGUCCCCUCGGUAAUGGCGAAUGGGACUCA [G25U C85U] | 0.415 |
| GGCCGGCAUGGUCCCAGCCUCCUCUCUGGCGCGGGCUGGGCAACAUUCCGAGGGGACCGUCCCCUCGGUAAUGGCGAAUGGGACCCA [G25U C33G] | 0.119 |
| GGCCGGCAUGGUCCCAGCCUCCUCUCUGGCGCCGGCUGGGCAACAUUCCGAGUGGACCGUCCCCUCGGUAAUGGCGAAUGGGACCCA [G25U G53U] | 0.145 |
| GGCCGGCAUGGUCCCAGCCUCCUCUCUGGCGCCGGCUGGGCAACAUUCCGAGGGGACCGUCCCCACGGUAAUGGCGAAUGGGACCCA [G25U U65A] | 0 |
| GGCCGGCAUGGUCCCAGCCUCCUCUCUGGCGCCGGCUGGGCAACAUUCCGAGGGGACCGUCCCCCCGGUAAUGGCGAAUGGGACCCA [G25U U65C] | 0.237 |
| GGCCGGCAUGGUCCCAGCCUCCUCUCUGGCGCCGGCUGGGCAACAUUCUGAGGGGACCGUCCCCUCGGUAAUGGCGAAUGGGACCCA [G25U C49U] | 0.481 |
| GGCCGGCAUGGUCCCAGCCUCCUCUCUGGCGCCGGCUGGGCAACAUUCGGAGGGGACCGUCCCCUCGGUAAUGGCGAAUGGGACCCA [G25U C49G] | 0 |
| GGCCGGCAUGGUCCCAGCCUCCUCUCUGGCGCCGGCUGGGCAACAUUCAGAGGGGACCGUCCCCUCGGUAAUGGCGAAUGGGACCCA [G25U C49A] | 0.175 |
| GGCCGGCAUGGUCCCAGCCUCCUCUCUGGCGCCGGCUGGGCAACAUUCCGAGGGGACCGUCCCCUCGGUAAUGGCGAAUGAGACCCA [G25U G81A] | 0.124 |
| GGCCGGCAUGGUCCCAGCCUCCUCUCUGGCGCCGGCUGGGCAACAUUCCGAGGGGACCGUCCCCUCGGUAAUGGCGAAUGCGACCCA [G25U G81C] | 0.0923 |
| GGCCGGCAUGGUCCCAGCCUCCUCUCUGGCGCCGGCUGGGAAACAUUCCGAGGGGACCGUCCCCUCGGUAAUGGCGAAUGGGACCCA [G25U C41A] | 0.125 |
| GGCCGGCAUGGUCCCAGCCUCCUCUCCGGCGCCGGCUGGGCAACAUUCCGAGGGGACCGUCCCCUCGGUAAUGGCGAAUGGGACCCA [G25U U27C] | 0.107 |
| GGCCGGCAUGGUCCCAGCCUCCUCUCUGGCGCCGUCUGGGCAACAUUCCGAGGGGACCGUCCCCUCGGUAAUGGCGAAUGGGACCCA [G25U G35U] | 0.147 |
| GGCCGGCAUGGUCCCAGCCUCCUCUCUGGUGCCGGCUGGGCAACAUUCCGAGGGGACCGUCCCCUCGGUAAUGGCGAAUGGGACCCA [G25U C30U] | 0.102 |
| GGCCGGCAUGGUCCCAGCCUCCUCUCUGGCGCCGGCGGGGCAACAUUCCGAGGGGACCGUCCCCUCGGUAAUGGCGAAUGGGACCCA [G25U U37G] | 0.0489 |
| GGCCGGCAUGGUCCCAGCCUCCUCUCUGGCGCCGGCCGGGCAACAUUCCGAGGGGACCGUCCCCUCGGUAAUGGCGAAUGGGACCCA [G25U U37C] | 0.17 |

| Variant | self-cleavage |
| --- | --- |
| GGCCGGCAUGGUCCCAGCCUCCUCUCUGGCGCCGGAUGGGCAACAUUCCGAGGGGACCGUCCCCUCGGUAAUGGCGAAUGGGACCCA [G25U C36A] | 0.106 |
| GGCCGGCAUGGUCCCAGCCUCCUCUCUGGCGCCGGGUGGGCAACAUUCCGAGGGGACCGUCCCCUCGGUAAUGGCGAAUGGGACCCA [G25U C36G] | 0.108 |
| GGCCGGCAUGGUCCCAGCCUCCUCUAUGGCGCCGGCUGGGCAACAUUCCGAGGGGACCGUCCCCUCGGUAAUGGCGAAUGGGACCCA [G25U C26A] | 0.217 |
| GGCCGGCAUGGUCCCAGCCUCCUCUCUGGCGCCGGCUGGGCAACACUCCGAGGGGACCGUCCCCUCGGUAAUGGCGAAUGGGACCCA [G25U U46C] | 0 |
| GGCCGGCAUGGUCCCAGCCUCCUCUCUGGCGCCGGCUGGGCAACAGUCCGAGGGGACCGUCCCCUCGGUAAUGGCGAAUGGGACCCA [G25U U46G] | 0.199 |
| GGCCGGCAUGGUCCCAGCCUCCUCUCUGGCGCCGGCUGGGCAACAAUCCGAGGGGACCGUCCCCUCGGUAAUGGCGAAUGGGACCCA [G25U U46A] | 0.0852 |
| GGCCGGCAUGGUCCCAGCCUCCUCUCUGGCGCCGGCUGGGCAACAUUCCGAGGAGACCGUCCCCUCGGUAAUGGCGAAUGGGACCCA [G25U G54A] | 0.086 |
| GGCCGGCAUGGUCCCAGCCUCCUCUCUGGCGCCGGCUUGGCAACAUUCCGAGGGGACCGUCCCCUCGGUAAUGGCGAAUGGGACCCA [G25U G38U] | 0.134 |
| GGCCGGCAUGGUCCCAGCCUCCUCUCUGGCGCCGGCUCGGCAACAUUCCGAGGGGACCGUCCCCUCGGUAAUGGCGAAUGGGACCCA [G25U G38C] | 0.0554 |
| GGCCGGCAUGGUCCCAGCCUCCUCUCUGGCGCCGGCUGGGCAACAUUCCGAGGGGAUCGUCCCCUCGGUAAUGGCGAAUGGGACCCA [G25U C57U] | 0.227 |
| GGCCGGCAUGGUCCCAGCCUCCUCUCUGGCGCCGGCUGGGCAACAUUCCGAGGGGACCGUCCCCUCGGUAAUGGCGAAUGGGUCCCA [G25U A83U] | 0.0791 |
| GGCCGGCAUGGUCCCAGCCUCCUCUCUGGCGCCGGCUGGGCAACAUUCCGAAGGGACCGUCCCCUCGGUAAUGGCGAAUGGGACCCA [G25U G52A] | 0.166 |
| GGCCGGCAUGGUCCCAGCCUCCUCUCUGGCGCCGGCUGGGCAACAUUCCGAUGGGACCGUCCCCUCGGUAAUGGCGAAUGGGACCCA [G25U G52U] | 0.234 |
| GGCCGGCAUGGUCCCAGCCUCCUCUCUGCCGCCGGCUGGGCAACAUUCCGAGGGGACCGUCCCCUCGGUAAUGGCGAAUGGGACCCA [G25U G29C] | 0.106 |
| GGCCGGCAUGGUCCCAGCCUCCUCUCUGGCGCCGGCUGGGCAACAUUCCGAGGGGACCGUCCCCUCGGUAAUGGCGAAUGGGAACCA [G25U C84A] | 0.222 |
| GGCCGGCAUGGUCCCAGCCUCCUCUCUGGCGCCGGCUGGGCAACAUUCCGAGGGGACCGUCCCCUCGGUAAUGGCGAAUGGGAUCCA [G25U C84U] | 0.262 |
| GGCCGGCAUGGUCCCAGCCUCCUCUCUGGCGCCGGCUGGGCAACAUUCCGAGGGGACCGUCCCCUCGGUAAUGGCGAAUGGGAGCCA [G25U C84G] | 0.17 |
| GGCCGGCAUGGUCCCAGCCUCCUCUCUGGCGUCGGCUGGGCAACAUUCCGAGGGGACCGUCCCCUCGGUAAUGGCGAAUGGGACCCA [G25U C32U] | 0.161 |
| GGCCGGCAUGGUCCCAGCCUCCUCUCUGGCGACGGCUGGGCAACAUUCCGAGGGGACCGUCCCCUCGGUAAUGGCGAAUGGGACCCA [G25U C32A] | 0.105 |
| GGCCGGCAUGGUCCCAGCCUCCUCUCUGGCGGCGGCUGGGCAACAUUCCGAGGGGACCGUCCCCUCGGUAAUGGCGAAUGGGACCCA [G25U C32G] | 0.0222 |
| GGCCGGCAUGGUCCCAGCCUCCUCUCUGGCGCCGGCUGGGCAACAUUCCGAGGGGACAGUCCCCUCGGUAAUGGCGAAUGGGACCCA [G25U C58A] | 0.244 |
| GGCCGGCAUGGUCCCAGCCUCCUCUCUGGCGCCGGCUGGGCAACAUUCCGAGGGGACCGUCCCGUCGGUAAUGGCGAAUGGGACCCA [G25U C64G] | 0.154 |

| Variant | self-cleavage |
| --- | --- |
| GGCCGGCAUGGUCCCAGCCUCCUCUCUGGCGCCGGCUGGGCAACAUUCCGAGGGGACCGUCCCUUCGGUAAUGGCGAAUGGGACCCA [G25U C64U] | 0.113 |
| GGCCGGCAUGGUCCCAGCCUCCUCUCUGGCGCCGGCUGGGCAACAUUCCGAGGGGACCGUCCCCUCGGUAAUGGCGAAUGGAACCCA [G25U G82A] | 0.0678 |
| GGCCGGCAUGGUCCCAGCCUCCUCUCUGGCGCCGGCUGGGCAACAUUCCGAGGGGACCGUCCCCUCGGUAAUGGCGAAUGGCACCCA [G25U G82C] | 0.0755 |
| GGCCGGCAUGGUCCCAGCCUCCUCUCUGGCGCCGGCUGGGCAACAUUCCGAGGGGACCGUGCCCUCGGUAAUGGCGAAUGGGACCCA [G25U C61G] | 0.0978 |
| GGCCGGCAUGGUCCCAGCCUCCUCUCUGGCGCCGGCUGGGCAACAUUCCGAGGGGACCGUUCCCUCGGUAAUGGCGAAUGGGACCCA [G25U C61U] | 0.163 |
| GGCCGGCAUGGUCCCAGCCUCCUCUCUGGCGCCGGCUGGGCAACAUACCGAGGGGACCGUCCCCUCGGUAAUGGCGAAUGGGACCCA [G25U U47A] | 0.161 |
| GGCCGGCAUGGUCCCAGCCUCCUCUCUGGCGCCGGCUGGGCAACAUCCCGAGGGGACCGUCCCCUCGGUAAUGGCGAAUGGGACCCA [G25U U47C] | 0 |
| GGCCGGCAUGGUCCCAGCCUCCUCUCUGGCGCCGGCUGGGCAACAUUCCGAGGGGACCGUCCCCUCGGUAAUGCCGAAUGGGACCCA [G25U G74C] | 0.0308 |
| GGCCGGCAUGGUCCCAGCCUCCUCUCUGGCGCCGGCUGGGCAACAUUCCGAGGGGACCGUCCCCUCGGUAAUGUCGAAUGGGACCCA [G25U G74U] | 0.0268 |
| GGCCGGCAUGGUCCCAGCCUCCUCUCUGGCGCCGGCUGGGCAACAUUCCGAGGGGACCGUCCCCUCGGUAAUGACGAAUGGGACCCA [G25U G74A] | 0.0707 |
| GGCCGGCAUGGUCCCAGCCUCCUCUCUGGCGCCGGCUGGGCAACAUUCCGAGGGGACCGUCCCCUCUGUAAUGGCGAAUGGGACCCA [G25U G67U] | 0.305 |
| GGCCGGCAUGGUCCCAGCCUCCUCUCUGGCGCCGGCUGGGCAACAUUCCUAGGGGACCGUCCCCUCGGUAAUGGCGAAUGGGACCCA [G25U G50U] | 0.0361 |
| GGCCGGCAUGGUCCCAGCCUCCUCUCUGGCGCCGGCUGGACAACAUUCCGAGGGGACCGUCCCCUCGGUAAUGGCGAAUGGGACCCA [G25U G40A] | 0.111 |
| GGCCGGCAUGGUCCCAGCCUCCUCUCUGGCGCCGGCUGGGCAACAUUCCGAGGGCACCGUCCCCUCGGUAAUGGCGAAUGGGACCCA [G25U G55C] | 0.228 |
| GGCCGGCAUGGUCCCAGCCUCCUCUCUCGCGCCGGCUGGGCAACAUUCCGAGGGGACCGUCCCCUCGGUAAUGGCGAAUGGGACCCA [G25U G28C] | 0.106 |
| GGCCGGCAUGGUCCCAGCCUCCUCUCUUGCGCCGGCUGGGCAACAUUCCGAGGGGACCGUCCCCUCGGUAAUGGCGAAUGGGACCCA [G25U G28U] | 0.0652 |
| GGCCGGCAUGGUCCCAGCCUCCUCUCUGGCGCCGGCUGGGCAACAUUGCGAGGGGACCGUCCCCUCGGUAAUGGCGAAUGGGACCCA [G25U C48G] | 0 |
| GGCCGGCAUGGUCCCAGCCUCCUCUCUGGCGCCGGCUGGGCAACAUUCCGAGGGGACCGUCCCCUCGUUAAUGGCGAAUGGGACCCA [G25U G68U] | 0.225 |
| GGCCGGCAUGGUCCCAGCCUCCUCUCUGGCGCCGGCUGGGCAACAUUCCGAGGGGACCGUCCCCUCGCUAAUGGCGAAUGGGACCCA [G25U G68C] | 0.0791 |
| GGCCGGCAUGGUCCCAGCCUCCUCUCUGGCGCCGGCUGGGCAACAUUCCGAGGGGACCGUCCCCUCGGUAAUGGCGAAUGGGACCCG [G25U A87G] | 0.163 |
